{"source": "patent EP0860700A2", "molecular_target": "HSV-1 major capsid protein VP5 (gene product of UL19) (herpes simplex virus type 1 (HSV-1))", "assay": "co-immunoprecipitation with VP5 antisera of in vitro translated radiolabeled protein mixed with BAC-VP5 Sf9 extract, SDS-PAGE"}
{"substance": "HSV-1 UL15 gene product (75 kD protein)", "values": [{"measurement": "fold amount co-immunoprecipitated with VP5 against the negative control proteins (HPV-6b E1, HPV-16 E1, HPV-16 E2)", "value": 10, "unit": "fold"}]}
